PLA signals per cell, fold increase of PLA signals over the sum of the negative controls (first way of calculating) and fold increase of PLA signals over the sum of the negative controls (second way of calculating) data for one substance are collected here from article PMC3663845.

The target of the test is active (cleaved) presenilin of γ-secretase, marked at the active site by the inhibitor GTB (mouse (endogenous in primary hippocampal neurons)). As to the kind of experiment: proximity ligation; in situ PLA with 200 nM GTB (photoreactive biotinylated γ-secretase inhibitor, UV-irradiated, probed with streptavidin-oligonucleotide PLUS) in place of the PS antibody and mouse nicastrin-CT antibody (anti-mouse MINUS probe); fixed, 0.4% CHAPSO-permeabilised mouse primary hippocampal neurons; 10 µM L-685,458 as competitor of GTB in the control.

With “nicastrin (from UniProt P57716 28-708) (natural protein)”, the PLA signals per cell stood at 214 signals/cell, the fold increase of PLA signals over the sum of the negative controls (first way of calculating) is 4.5 fold and the fold increase of PLA signals over the sum of the negative controls (second way of calculating) was 4.5 fold.
